The data set concerns the molecule itself. The data set is described as follows: cryo-EM structure.

B1: full-length chicken STING, cGAMP-bound (natural protein, UniProt E1C7U0 1-379, looked up)
chain: MPQDPSTRSSPARLLIPEPRAGRARHAACVLLAVCFVVLFLSGEPLAPIIRSVCTQLAALQLGVLLKGCCCLAEEIFHLHSRHHGSLWQVLCSCFPPRWYLALLLVGGSAYLDPPEDNGHSPRLALTLSCLCQLLVLALGLQKLSAVEVSELTESSKKNVAHGLAWSYYIGYLKVVLPRLKECMEELSRTNPMLRAHRDTWKLHILVPLGCDIWDDLEKADSNIQYLADLPETILTRAGIKRRVYKHSLYVIRDKDNKLRPCVLEFASPLQTLCAMSQDDCAAFSREQRLEQARLFYRSLRDILGSSKECAGLYRLIAYEEPAEPESHFLSGLILWHLQQQQREEYMVQEELPLGTSSVELSLQVSSSDLPQPLRSDCP
In general, stoichiometry N refers to a count of units in the complex or per binding partner. For the protein B1, the “stoichiometry N” value was found to be 2.
